Test in all cases: cell_activity; T cells, mostly above 70%
Holding throughout (conditions): tags: SV40 NLS; FokI fusion

The target of one data set is T1, CD38 (1) right V2 TALEN (synthetic, UniProt Q56830 SEQ:15-719).
T1 chain: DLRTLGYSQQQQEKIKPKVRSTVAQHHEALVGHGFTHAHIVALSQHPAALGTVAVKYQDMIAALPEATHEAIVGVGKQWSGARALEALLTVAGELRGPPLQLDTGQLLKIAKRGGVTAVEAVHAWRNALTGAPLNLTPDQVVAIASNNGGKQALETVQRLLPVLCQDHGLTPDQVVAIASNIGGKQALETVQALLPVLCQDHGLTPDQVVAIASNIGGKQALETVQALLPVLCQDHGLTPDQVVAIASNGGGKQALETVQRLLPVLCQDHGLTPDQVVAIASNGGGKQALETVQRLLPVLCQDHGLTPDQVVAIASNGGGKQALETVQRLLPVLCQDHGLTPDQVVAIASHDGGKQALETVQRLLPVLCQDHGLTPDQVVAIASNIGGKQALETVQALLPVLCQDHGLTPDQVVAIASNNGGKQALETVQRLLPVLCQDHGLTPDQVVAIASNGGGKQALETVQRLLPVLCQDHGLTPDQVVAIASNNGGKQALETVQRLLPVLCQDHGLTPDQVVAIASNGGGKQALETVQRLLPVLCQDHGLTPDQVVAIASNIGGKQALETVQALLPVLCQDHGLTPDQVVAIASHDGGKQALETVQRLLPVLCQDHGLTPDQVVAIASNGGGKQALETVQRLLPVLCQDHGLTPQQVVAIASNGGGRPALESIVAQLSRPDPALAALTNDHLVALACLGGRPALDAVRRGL

The next data set concerns the target T2, CD38 (1) left V2 TALEN (synthetic, UniProt Q56830 SEQ:15-719).
T2 chain: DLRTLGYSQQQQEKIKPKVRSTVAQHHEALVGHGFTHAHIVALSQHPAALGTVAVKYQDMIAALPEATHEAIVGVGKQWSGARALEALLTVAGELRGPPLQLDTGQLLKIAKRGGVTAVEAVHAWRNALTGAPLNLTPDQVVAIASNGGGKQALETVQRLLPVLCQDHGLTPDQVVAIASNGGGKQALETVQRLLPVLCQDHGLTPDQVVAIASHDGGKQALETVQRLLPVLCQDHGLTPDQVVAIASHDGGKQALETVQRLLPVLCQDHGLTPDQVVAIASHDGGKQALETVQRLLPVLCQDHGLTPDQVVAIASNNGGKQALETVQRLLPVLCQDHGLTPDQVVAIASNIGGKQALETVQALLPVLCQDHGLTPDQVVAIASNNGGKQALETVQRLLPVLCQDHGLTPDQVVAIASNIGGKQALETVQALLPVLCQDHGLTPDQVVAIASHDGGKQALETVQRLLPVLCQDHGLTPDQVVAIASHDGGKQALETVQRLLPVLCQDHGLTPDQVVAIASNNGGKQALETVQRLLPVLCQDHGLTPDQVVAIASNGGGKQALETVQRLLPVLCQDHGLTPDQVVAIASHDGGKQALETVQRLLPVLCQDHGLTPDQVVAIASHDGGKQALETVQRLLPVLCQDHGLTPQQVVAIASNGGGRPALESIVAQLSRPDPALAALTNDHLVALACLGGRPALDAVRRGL

Another data set has as its target T3, CISH (3) right V2 TALEN (synthetic, UniProt Q56830 SEQ:15-719).
T3 chain: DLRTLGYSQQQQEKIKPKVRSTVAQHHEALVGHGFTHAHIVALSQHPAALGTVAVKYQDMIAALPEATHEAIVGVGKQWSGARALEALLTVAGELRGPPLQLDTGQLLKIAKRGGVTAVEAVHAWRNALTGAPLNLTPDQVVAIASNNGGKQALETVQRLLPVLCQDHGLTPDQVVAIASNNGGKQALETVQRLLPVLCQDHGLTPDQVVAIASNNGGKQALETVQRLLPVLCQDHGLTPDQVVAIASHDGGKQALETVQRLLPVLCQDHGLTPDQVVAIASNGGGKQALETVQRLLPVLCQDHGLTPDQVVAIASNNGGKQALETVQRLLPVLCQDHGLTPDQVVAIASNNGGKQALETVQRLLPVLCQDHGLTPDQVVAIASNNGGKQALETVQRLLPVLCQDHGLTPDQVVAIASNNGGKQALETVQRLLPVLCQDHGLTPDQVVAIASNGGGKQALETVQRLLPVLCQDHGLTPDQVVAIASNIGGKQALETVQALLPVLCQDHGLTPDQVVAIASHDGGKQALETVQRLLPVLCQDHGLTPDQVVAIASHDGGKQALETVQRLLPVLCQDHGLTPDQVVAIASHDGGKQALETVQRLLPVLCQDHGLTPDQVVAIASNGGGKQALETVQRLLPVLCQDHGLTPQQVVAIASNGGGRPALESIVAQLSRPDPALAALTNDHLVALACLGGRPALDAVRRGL

Another data set concerns the target T4, CD38 (2) right V2 TALEN (synthetic, UniProt Q56830 SEQ:15-719).
T4 chain: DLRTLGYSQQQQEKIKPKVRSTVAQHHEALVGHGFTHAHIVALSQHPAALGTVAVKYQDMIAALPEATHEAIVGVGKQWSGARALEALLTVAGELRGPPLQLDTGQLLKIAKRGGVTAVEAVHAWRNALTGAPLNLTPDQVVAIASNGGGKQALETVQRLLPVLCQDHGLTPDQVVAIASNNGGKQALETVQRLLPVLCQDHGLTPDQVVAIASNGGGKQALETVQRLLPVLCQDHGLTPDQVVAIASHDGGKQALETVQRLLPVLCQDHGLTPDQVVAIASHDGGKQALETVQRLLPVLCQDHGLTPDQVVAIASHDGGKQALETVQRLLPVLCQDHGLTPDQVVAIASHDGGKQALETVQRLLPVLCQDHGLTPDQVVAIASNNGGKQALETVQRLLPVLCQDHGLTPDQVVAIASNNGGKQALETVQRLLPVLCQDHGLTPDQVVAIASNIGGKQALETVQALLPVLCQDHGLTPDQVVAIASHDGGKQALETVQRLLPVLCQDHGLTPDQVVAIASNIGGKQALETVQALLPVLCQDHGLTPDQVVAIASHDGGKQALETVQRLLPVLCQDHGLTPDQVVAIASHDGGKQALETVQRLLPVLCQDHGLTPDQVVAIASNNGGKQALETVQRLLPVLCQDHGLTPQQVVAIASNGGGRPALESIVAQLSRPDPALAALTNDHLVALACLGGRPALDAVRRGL

The next data set has as its target T5, IgH (1) left V2 TALEN (synthetic, UniProt Q56830 SEQ:15-719).
T5 chain: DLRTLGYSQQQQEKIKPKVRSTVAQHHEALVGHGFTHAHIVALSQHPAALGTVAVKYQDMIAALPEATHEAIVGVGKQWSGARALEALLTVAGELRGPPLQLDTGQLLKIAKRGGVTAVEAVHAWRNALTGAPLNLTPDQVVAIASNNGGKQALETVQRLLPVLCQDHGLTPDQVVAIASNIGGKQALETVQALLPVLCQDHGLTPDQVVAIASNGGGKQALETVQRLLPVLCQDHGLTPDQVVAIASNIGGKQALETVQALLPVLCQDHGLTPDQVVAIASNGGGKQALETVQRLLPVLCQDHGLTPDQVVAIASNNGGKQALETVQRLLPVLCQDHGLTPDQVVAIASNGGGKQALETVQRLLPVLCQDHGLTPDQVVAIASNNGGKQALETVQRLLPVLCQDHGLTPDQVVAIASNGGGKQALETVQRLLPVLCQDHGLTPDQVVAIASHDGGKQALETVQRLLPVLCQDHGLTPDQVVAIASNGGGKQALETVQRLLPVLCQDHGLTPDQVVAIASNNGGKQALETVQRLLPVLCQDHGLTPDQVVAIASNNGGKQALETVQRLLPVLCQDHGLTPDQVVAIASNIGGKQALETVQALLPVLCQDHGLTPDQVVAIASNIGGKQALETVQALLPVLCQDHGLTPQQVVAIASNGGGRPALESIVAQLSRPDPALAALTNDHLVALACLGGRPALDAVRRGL

The target of the next data set is T6, CD38 (2) left V2 TALEN (synthetic, UniProt Q56830 SEQ:15-719).
T6 chain: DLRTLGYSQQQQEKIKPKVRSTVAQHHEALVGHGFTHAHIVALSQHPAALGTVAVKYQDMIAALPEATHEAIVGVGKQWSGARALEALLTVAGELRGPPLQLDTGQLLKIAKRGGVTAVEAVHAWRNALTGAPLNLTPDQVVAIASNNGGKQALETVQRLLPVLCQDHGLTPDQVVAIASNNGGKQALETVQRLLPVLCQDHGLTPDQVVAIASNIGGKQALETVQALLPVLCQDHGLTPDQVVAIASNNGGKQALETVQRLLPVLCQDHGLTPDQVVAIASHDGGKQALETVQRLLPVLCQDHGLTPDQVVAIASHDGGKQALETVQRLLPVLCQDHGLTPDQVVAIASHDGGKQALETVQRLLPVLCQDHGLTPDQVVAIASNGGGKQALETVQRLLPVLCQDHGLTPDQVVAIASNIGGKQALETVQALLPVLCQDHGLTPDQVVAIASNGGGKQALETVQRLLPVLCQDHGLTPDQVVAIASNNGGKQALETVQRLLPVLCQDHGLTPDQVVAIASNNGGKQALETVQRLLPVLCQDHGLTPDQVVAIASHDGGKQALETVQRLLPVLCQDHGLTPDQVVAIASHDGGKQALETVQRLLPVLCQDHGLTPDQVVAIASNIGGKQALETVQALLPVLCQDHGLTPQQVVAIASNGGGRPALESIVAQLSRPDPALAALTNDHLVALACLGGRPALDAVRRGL

The next data set deals with T7, IgH (1) right V2 TALEN (synthetic, UniProt Q56830 SEQ:15-719).
T7 chain: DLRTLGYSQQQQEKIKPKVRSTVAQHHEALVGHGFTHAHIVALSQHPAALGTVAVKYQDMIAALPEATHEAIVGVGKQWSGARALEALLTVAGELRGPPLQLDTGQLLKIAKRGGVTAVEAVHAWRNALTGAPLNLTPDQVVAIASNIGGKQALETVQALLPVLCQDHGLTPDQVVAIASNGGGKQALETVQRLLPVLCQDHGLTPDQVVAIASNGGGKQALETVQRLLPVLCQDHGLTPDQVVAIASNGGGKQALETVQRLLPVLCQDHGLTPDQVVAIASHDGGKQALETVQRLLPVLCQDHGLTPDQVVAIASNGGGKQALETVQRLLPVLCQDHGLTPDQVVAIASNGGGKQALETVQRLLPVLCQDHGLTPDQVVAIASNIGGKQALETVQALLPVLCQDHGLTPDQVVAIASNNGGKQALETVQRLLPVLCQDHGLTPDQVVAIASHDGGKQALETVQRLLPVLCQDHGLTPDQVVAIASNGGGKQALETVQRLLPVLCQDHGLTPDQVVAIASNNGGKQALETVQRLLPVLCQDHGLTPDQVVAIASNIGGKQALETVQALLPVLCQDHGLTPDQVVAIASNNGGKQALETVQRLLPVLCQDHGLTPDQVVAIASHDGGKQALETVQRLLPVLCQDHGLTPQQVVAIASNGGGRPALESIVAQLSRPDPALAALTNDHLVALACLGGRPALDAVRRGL

B1: CD38 (1) right half-site (dsDNA)
DNA 1: AAGTACACTGAAATTCA
DNA 2: TGAATTTCAGTGTACTT
Molecule B1 had an activity with CD38 (1) right V2 TALEN of over 50 % indels.

B2: CD38 (1) left half-site (dsDNA)
DNA 1: TTTCCCGAGACCGTCCT
DNA 2: AGGACGGTCTCGGGAAA
In the case of B2, the activity with CD38 (1) left V2 TALEN was over 50 % indels.

B3: CISH (3) right half-site (dsDNA)
DNA 1: GAGGGTACCCCAGCCCA
DNA 2: TGGGCTGGGGTACCCTC
B3: the activity in the data set with CISH (3) right V2 TALEN is over 50 % indels.

B4: CD38 (2) right half-site (dsDNA)
DNA 1: CCGGTGTCCGGGGACAA
DNA 2: TTGTCCCCGGACACCGG
B4 had an activity with CD38 (2) right V2 TALEN of over 50 % indels.

B5: IgH (1) left half-site (dsDNA)
DNA 1: TGATATGTGTCTGGAAT
DNA 2: ATTCCAGACACATATCA
Take B5: the activity with IgH (1) left V2 TALEN was over 50 % indels.

B6: CD38 (2) left half-site (dsDNA)
DNA 1: TGGAGCCCTATGGCCAA
DNA 2: TTGGCCATAGGGCTCCA
Molecule B6 had an activity with CD38 (2) left V2 TALEN of over 50 % indels.

B7: IgH (1) right half-site (dsDNA)
DNA 1: AGCTCAGCTAAGAAATA
DNA 2: TATTTCTTAGCTGAGCT
As to B7, in the data set with IgH (1) right V2 TALEN, the activity is over 50 % indels.
